Measurements: publication PMC3792076, “Elucidation of Substrate Specificity in Aspergillus nidulans UDP-Galactose-4-Epimerase” (PLoS ONE, 2013)

Substrate: O=c1ccn([C@@H]2O[C@H](COP(=O)(O)OP(=O)(O)O[C@H]3O[C@H](CO)[C@H](O)[C@H](O)[C@H]3O)[C@@H](O)[C@H]2O)c(=O)[nH]1
Assay: purified protein
Type: biochemical, Aspergillus nidulans
Conditions: 2 mM NAD+, 100 mM Tris-HCl pH 8.5, 25°C

Protein	Km [µM]	kcat [s⁻¹]	kcat/Km [M⁻¹ s⁻¹]
AnGALE (Aspergillus nidulans FGSC A4) (protein, N-terminal His-TEV tag (p-HIS-TEV-GALE), not cleaved for crystallization; E. coli BL21-Gold; homodimer) MPSGSVLVTGGTGYIGSFTTLALLEAGYKVVVADNLYNSSAEALNRIELISGKKAEFAQLDVTDEAAFDKVFEAHPDIDSVIHFAALKAVGESGEKPLDYYHVNVYGTICLLRSMVRHNVTNIVFSSSATVYGDATRFPDMIPIPEHCPLGPTNPYGNTKFAIELAITDVINAQRNNAKKAGNETEAAKWNGALLRYFNPAGAHPSGIMGEDPQGVPYNLLPLLAQVATGKREKLLVFGDDYASHDGTAIRDYIHILDLADGHLKALNYLRANNPGVRAWNLGTGRGSTVYEMIRAFSKAVGRDLPYEVAPRRAGDVLNLTSNPTRANTELGWKAQRTLEQACEDLWLWTKNNPQGYRQQPPAELLEQLKK	110 ± 10	12.8 ± 0.6	116000 ± 8100
AnGALE (Aspergillus nidulans FGSC A4; L320Y) (protein, N-terminal His-TEV tag (p-HIS-TEV-GALE), not cleaved for crystallization; E. coli BL21-Gold; homodimer) MPSGSVLVTGGTGYIGSFTTLALLEAGYKVVVADNLYNSSAEALNRIELISGKKAEFAQLDVTDEAAFDKVFEAHPDIDSVIHFAALKAVGESGEKPLDYYHVNVYGTICLLRSMVRHNVTNIVFSSSATVYGDATRFPDMIPIPEHCPLGPTNPYGNTKFAIELAITDVINAQRNNAKKAGNETEAAKWNGALLRYFNPAGAHPSGIMGEDPQGVPYNLLPLLAQVATGKREKLLVFGDDYASHDGTAIRDYIHILDLADGHLKALNYLRANNPGVRAWNLGTGRGSTVYEMIRAFSKAVGRDLPYEVAPRRAGDVLNYTSNPTRANTELGWKAQRTLEQACEDLWLWTKNNPQGYRQQPPAELLEQLKK	60 ± 10	1.5 ± 0.1	26800 ± 1900
